Data from US20230025129A1 (KYMAB, published 2023).

T1: cyno matriptase-2 ECD protein his tag (cynomolgus, UniProt Q8IU80 84-811 (human entry))
T1 construct: aa 73-800 of A0A2K5VAP0 with C-terminal linker and His tag; also called cynomolgus MTP-2 ECD
T1 chain: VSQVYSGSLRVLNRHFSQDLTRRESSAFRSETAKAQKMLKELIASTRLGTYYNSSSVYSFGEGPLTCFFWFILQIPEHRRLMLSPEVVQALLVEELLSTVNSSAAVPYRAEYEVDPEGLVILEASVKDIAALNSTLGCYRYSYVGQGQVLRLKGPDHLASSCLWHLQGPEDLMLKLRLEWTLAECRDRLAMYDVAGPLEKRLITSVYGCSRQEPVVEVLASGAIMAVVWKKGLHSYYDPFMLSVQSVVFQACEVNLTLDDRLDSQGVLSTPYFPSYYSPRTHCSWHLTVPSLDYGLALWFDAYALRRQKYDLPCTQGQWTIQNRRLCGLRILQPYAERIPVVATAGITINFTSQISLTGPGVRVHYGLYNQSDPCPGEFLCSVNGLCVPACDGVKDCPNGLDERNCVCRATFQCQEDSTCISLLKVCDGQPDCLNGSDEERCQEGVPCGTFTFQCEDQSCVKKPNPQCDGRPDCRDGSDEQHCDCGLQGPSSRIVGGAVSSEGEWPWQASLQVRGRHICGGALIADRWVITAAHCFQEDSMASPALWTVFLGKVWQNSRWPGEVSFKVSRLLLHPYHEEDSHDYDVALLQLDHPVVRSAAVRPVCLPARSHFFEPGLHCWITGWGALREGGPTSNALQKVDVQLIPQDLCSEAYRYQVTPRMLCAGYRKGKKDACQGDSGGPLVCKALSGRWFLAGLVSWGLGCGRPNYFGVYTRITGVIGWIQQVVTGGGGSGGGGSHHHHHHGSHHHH

T2: rat matriptase-2 ECD protein his tag (rat, UniProt Q9DBI0 80-811 (mouse entry))
T2 construct: aa 80-811 of NCBI XP_006242057.1 with C-terminal linker and His tag; also called rat MTP-2 ECD
T2 chain: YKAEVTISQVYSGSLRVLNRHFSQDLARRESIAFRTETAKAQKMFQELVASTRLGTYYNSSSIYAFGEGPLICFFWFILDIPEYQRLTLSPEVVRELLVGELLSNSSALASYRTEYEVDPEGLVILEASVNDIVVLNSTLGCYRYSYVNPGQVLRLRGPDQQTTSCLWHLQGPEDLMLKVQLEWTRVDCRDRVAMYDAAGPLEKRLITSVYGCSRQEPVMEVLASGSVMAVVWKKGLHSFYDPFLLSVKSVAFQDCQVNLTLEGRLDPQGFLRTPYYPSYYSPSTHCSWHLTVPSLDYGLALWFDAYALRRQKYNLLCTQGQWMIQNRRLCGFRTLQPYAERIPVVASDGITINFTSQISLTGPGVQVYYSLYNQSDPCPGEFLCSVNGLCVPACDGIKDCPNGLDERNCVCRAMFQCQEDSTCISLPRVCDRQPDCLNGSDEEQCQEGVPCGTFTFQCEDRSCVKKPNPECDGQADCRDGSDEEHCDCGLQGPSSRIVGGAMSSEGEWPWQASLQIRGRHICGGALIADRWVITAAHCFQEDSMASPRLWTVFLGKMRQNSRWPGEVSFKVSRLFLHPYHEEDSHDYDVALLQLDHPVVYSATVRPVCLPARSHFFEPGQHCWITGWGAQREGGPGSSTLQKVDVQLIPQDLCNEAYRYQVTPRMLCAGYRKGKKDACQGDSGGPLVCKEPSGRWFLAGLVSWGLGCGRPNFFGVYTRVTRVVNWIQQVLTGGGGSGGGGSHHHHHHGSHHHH

T3: human matriptase-2 ECD protein his tag (human, UniProt Q8IU80 78-811)
T3 construct: also called human MTP-2 ECD; huMTP-2
T3 sequence: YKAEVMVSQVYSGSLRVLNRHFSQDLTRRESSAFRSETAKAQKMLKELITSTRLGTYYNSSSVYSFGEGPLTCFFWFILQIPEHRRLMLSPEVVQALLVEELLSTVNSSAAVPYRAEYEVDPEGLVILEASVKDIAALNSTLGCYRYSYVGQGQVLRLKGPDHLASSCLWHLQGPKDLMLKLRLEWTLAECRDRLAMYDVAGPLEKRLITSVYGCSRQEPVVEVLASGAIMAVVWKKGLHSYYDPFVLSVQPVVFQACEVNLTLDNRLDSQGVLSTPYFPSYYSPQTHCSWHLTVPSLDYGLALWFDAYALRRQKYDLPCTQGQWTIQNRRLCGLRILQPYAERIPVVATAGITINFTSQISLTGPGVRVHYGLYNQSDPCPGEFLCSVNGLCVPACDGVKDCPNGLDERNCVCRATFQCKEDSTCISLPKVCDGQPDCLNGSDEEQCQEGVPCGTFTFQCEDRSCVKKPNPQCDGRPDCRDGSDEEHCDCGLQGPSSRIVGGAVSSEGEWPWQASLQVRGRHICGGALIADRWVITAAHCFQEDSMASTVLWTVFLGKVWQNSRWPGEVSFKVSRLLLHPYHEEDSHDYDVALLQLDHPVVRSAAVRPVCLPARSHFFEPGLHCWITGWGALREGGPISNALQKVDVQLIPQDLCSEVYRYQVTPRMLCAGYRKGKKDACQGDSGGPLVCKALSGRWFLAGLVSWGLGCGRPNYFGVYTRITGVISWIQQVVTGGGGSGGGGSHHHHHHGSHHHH


How the values were obtained:
Assay in all cases: SPR, his-tagged MTP-2 ECD protein (Table W)
[1] = target: T1, cyno matriptase-2 ECD protein his tag
Experimental: (§1) Off-rate screening was performed by surface plasmon resonance (SPR), using a Biacore 8K system (GE Healthcare). Anti-human Fc mix (˜1000 RU) were immobilised in both active and reference channels in HBS-P+ buffer (GE BR100671) pH 7.4. Anti-MTP-2 hulgG4PE antibodies were then captured for 60 sec at 10 μl/min at 1 μg/ml concentration (approximatively 35 and 50 RU were captured) only on the active channel. MTP-2 ECD protein analytes were then injected (at 100, 25, 6.25, 1.56 and 0 nM concentrations) for 120 sec (association time) at 30 μl/min and dissociation monitored for 600 sec. Multiple cycle kinetics mode was used with all 8 channels being used. Reference and background were subtracted from the sensorgrams for each antibody and data was fitted using a 1:1 interaction model in the Biacore evaluation software. Rmax, ka, kd globally fitted, RI=0.
(§2) NORI-011, NORI-008, NORI-003 and NORI-006 were all found to have cross-reactive binding to human, mouse, cyno and rat MTP-2 ECD proteins. […] The true KD value for NORI-008 could not be measured accurately for human or mouse MTP-2 due to a very slow off-rate.

[2] = target: T2, rat matriptase-2 ECD protein his tag
Experimental: as §1, §2

[3] = target: T3, human matriptase-2 ECD protein his tag
Experimental: as §1, §2

Binder | Kd [1] | Kd [2] | Kd [3]
NORI-006 (antibody, human IgG4 S228P, kappa, V domains shown, human IgG4PE, kappa) VH: EVQLVESGGGLIKPGRSLRLSCTGSGFTFGDFGLSWFRQAPGKGLEWISFIRSKPYGGTTDYAASVKGRFTISRDDSKNVAYLQMNSLKTEDTAVYYCARNEILTGYYIFDYWGQGTLVTVSS VL: DIQMTQSPSSLSASLGDRVTITCQASQDINNYLNWYQVQPGKAPKLLIFDASILETGVPSRFSGSGSGTDFSFTISSLQPEDIATYYCQQYDNLPLTFGGGTKVDFKR | 0.824 nM | 15.2 nM | 2.93 nM
NORI-008 (antibody, human IgG4 S228P, kappa, V domains shown, human IgG4PE, kappa, in the in vitro assays; a mouse IgG1 format was used in one in vivo study only; also called NORI-008 hulgG4PE; NORI-008 IgG) VH: QVQLQESGPGLVKPSETLSLTCSVSGGSVSSGRYYWTWIRQPPGKGLEWIGYISNSGNTNYNPSLKSRVTISLDTSKKQFSLSLSAVTAADTAVYYCARGFIYDYWFDPWGQGSLVTVSS VL: DSQMTQSPSSLSASVGDRVTITCQASQDIDNYLNWYQQRPGKAPKLLIYDASKLETGVPSRFSGSGSGTDFTFTISSLQPEDFATYYCQQYGNLPITFGQGTRLDIKR | 0.0104 nM | 7.64 nM | –
NORI-011 (antibody, human IgG4 S228P, lambda, human IgG4PE, lambda; NORI-010 with a P124S mutation in the VH domain) heavy: not shown light: QSALTQPPSASGSPGQSVTISCTGTSSDVGFYNFVSWYQQHPDKAPKVMIYEVSKRPSGVPDRFSGSKSGNTASLTVSGLQAEDEADYYCSSYAGSNKVVFGGGTKLTVLGQPKAAPSVTLFPPSSEELQANKATLVCLISDFYPGAVTVAWKADSSPVKAGVETTTPSKQSNNKYAASSYLSLTPEQWKSHRSYSCQVTHEGSTVEKTVAPTECS | 2.17 nM | 3.01 nM | 5.61 nM
NORI-003 (antibody, human IgG4 S228P, kappa, V domains shown, human IgG4PE, kappa; NORI-002 with the free cysteine of the VH domain mutated (printed as 'C49C')) VH: EVQLVESGGGLVKPGRSLRLSCTGSGFTFGDFGMSWFRQAPGKGLEWVGFIRSKPYGGTTDYAPSVRGRFSISRDDSKGIVYLQMNSLRTEDTAVYYCSRNEILTGYYIFDYWGQGTLVTVSS VL: DIQMTQSPSSLSASLGDRVTITCQASHDITNYLIWYQQKPGKAPRLLIFDASILETGVPSRFSGSGSGTDFTFTISSLQPEDFATYYCQQYYNLPLTFGGGTKVDIKR | 1.76 nM | 19.2 nM | 5.24 nM
